Assay: soluble on expression in E. coli; label from the status in PepcDB or PDB records

| Sequence | soluble on expression in E. coli |
| --- | --- |
| MPEEKQKKSVLEKALKRIEENFGKGSIMILGDETQVQPVEVIPTGSLAIDIATGVGGYPRGRIVEIFGQESSGKTTLALHAIAEAQKMGGVAAFIDAEHALDPVYAKNLGVDLKSLLISQPDHGEQALEIVDELVRSGVVDLIVVDSVAALVPRAEIEGAMGDMQVGLQARLMSQALRKIAGSVNKSKAVVIFTNQIRMKIGVMFGSPETTTGGLALKFYATMRMEVRRGEPIKEGKDVIGNVISVKIVKNKVAPPFKTAQTYIIYGKGIDREYELFNIAVNEGIVDRKGSWYYYTTLKGEEVSLGQGSSNAVQFLKDNPEIAGEIERRIREKYGLLSVEKEEQRKEKKSSGEEAS | soluble |
| MDDLIELEISKTQCIRIYLPCKKEDLDFFDCVTIEYLKEQTEYILYYKDLSGAAIISLKELLEKALNFKLQIENEYKDKGIGYYHSIYTNNIYANKLQTAGSQDLIDPTKDFLVWSTLGPTSIGTFIYNDQDKIYIEISPLYEWFNHIFDDILEEYNEVKDEDASFDDFLNNYKPIDIVAIDRKVAEKWLEFCCEMIEILKANDKKQLK | not soluble |
| MAHHHHHHMLKLQLDATAIEDELKLSANSKSANTVSSKTPRPDKFAAYHTLRLLFVPIWKRYRFHKQMVWATAIVAKHVLLKVHWRRQRRSERATDTFLHVLRIPRTKLRCAAHLLEGQVVRIQRAFRRHRARVQAVVELNYRKVRRDVEEAYWEAVVTQHEAELAVQQRPFSPVPKAVREVFGARAEARARFGSIQRRTSLLSSAGNSSYDTAVPSNELDVYNFHMIGRLPGSLLRFEMTSAVFAQLRRSAARAHLMDDFSETRARRAGMGGFMEHGDIAPTNTAFVRSRGKCRAQLPCFLPESVYAAILNNTCYLTSLMRDDRKLRAHLRQREHHLESY | not soluble |
| MSLVIVMYSIKMRASKNGKHISGAERIVNKDEIEETVKELVRRALTHENGTPDFINIKIEEIKEEITYINHLPIKTIHCKDKEEARETAKKILRNEGIPDSVIDYAYEIIDKGGMRGAAILNLKGERLEPDKERGVRVKNIDTTKELKEKILKENLGTERTVDAIAIASKVIHLGVIAELCTSDNKSYTTGYVATKKGYFRITNLKKEGESGGRVFFVKDDVDIEDLINKLENKPEGHHHHHH | soluble |
| MDYRQLHRWDLPPEEAIKVQNELRKKIKLTPYEGEPEYVAGVDLSFPGKEEGLAVIVVLEYPSFKILEVVSERGEITFPYIPGLLAFREGPLFLKAWEKLRTKPDVVVFDGQGLAHPRKLGIASHMGLFIEIPTIGVAKSRLYGTFKMPEDKRCSWSYLYDGEEIIGCVIRTKEGSAPIFVSPGHLMDVESSKRLIKAFTLPGRRIPEPTRLAHIYTQRLKKGLFLEHHHHHH | soluble |
| MGSDKIHHHHHHMSENPIDAFIPEDIRDLYEIHNYRNAAQVLATGCPNEFQEIIEALRVFRLTLADIRKPGGNESDIPKRISGLLRAKGWMETRIKGDLLITKVSGTIDKNLGEKDLEGMEENESDTLEKIEELKNKGQVERIVRENFLDGHKVDYVKKRVAFDLEWNSKDQTFDRDLYAFRAFHECDLIDAAILLTRSASLNAVFEKLGPELNSDGTPKTSKNGKPKLIKTKYGASTTWMGKLLYRLNACRHGGCPVLALGITPNLITDWAEYESKNT | not soluble |
| MKLKNTLLASALLSAMAFSVNAATELTPEQAAAVKPFDRVVVTGRFNAIGEAVKAVSRRADKEGAASFYVVDTSDFGNSGNWRVVADLYKADAEKAEETSNRVINGVVELPKDQAVLIEPFDTVTVQGFYRSQPEVNDAITKAAKAKGAYSFYIVRQIDANQGGNQRITAFIYKKDAKKRIVQSPDVIPADSEAGRAALAAGGEAAKKVEIPGVATTASPSSEVGRFFETQSSKGGRYTVTLPDGTKVEELNKATAAMMVPFDSIKFSGNYGNMTEVSYQVAKRAAKKGAKYYHITRQWQERGNNLTVSADLYKLEHHHHHH | not soluble |
| MGSMSMNAEQTVAELIARSNRLGSDPKNTNYAGGNTSAKGTDTDPVTGQPVELLWVKGSGGDLGTLTENGLAVLRLDRMRALVDVYPGVEREDEMVAAFDYCLHGRGGAAPSIDTAMHGLVDAAHVDHLHPDSGIALATAADGEALTKQIFGDRVVWVPWRRPGFQLGLDIADIKRRNPQAIGTILGGHGITAWGSTSAEAEAHSLEIIETAERYIAENGLEHHHHHH | soluble |
| MSLVVFPFKHEHPEVLLHNVRVAAAHPRVHEVLCIGYERDQTYEAVERAAPEISRATGTPVSVRLQERLGTLRPGKGDGMNTALRYFLEETQWERIHFYDADITSFGPDWITKAEEAADFGYGLVRHYFPRASTDAMITWMITRTGFALLWPHTELSWIEQPLGGELLMRREVAAMLYEDERVRRRSDWGIDTLYTFVTVQQGVSIYECYIPEGKAHRLYGGLDDLRTMLVECFAAIQSLQHEVVGQPAIHRQEHPHRVPVHIAERVGYDVEATLHRLMQHWTPRQVELLELFTTPVREGLRTCQRRPAFNFMDEMAWAATYHVLLEHFQPGDPDWEELLFKLWTTRVLNYTMTVALRGYDYAQQYLYRMLGRYRYQAALENGRGHPVPPRAALSTA | soluble |
| EDRSVHFDSMSNGQGAASALPIFAEFLKRVYADPKLGYTTEEKFEFPQDFQPCMMDQNVEYFDAGGGEVVEPLPEILVELP | not soluble |
| MASNDPGNEVSSYSPTSPSYVKFFTQSNLEKLPKYKEKKAASAKQTAPNNSNGGSEEEITCALDYLIPPPMPKNQQYRAFGSIW | soluble |
| MDSENSSSHSISSPQMFQNTHNNSAMEDNLLSRPMNNESLQMIIGYLRRNGLTETEELLTREAGPVLRVEGSNGLPPEEAISVEFDTFVQHANDCTDVVQAEFSQLLFPIFAHSYIALIEKHAATARIFFNRFKIFIPECFSEFVYQLSLIEDAMTLRANEHVHILRENKFLVRLSRPTLKHLESIQTRVIGVKNIIAKHICIENADEVSTNRTTIETQMGGILGVTSKSDKRHKMMFSVLKDELMQNIEKRKTKGKDWKDMGKKMQTHCPQADRIPLPPISEHLREERRNWLRDVGKMAIISAESPVSICMYTTVNAPIGVASCDFTDDSSLIAMGLSDSSIVMNAMDPMNKMKKLRDMEFLDKIDIETADNVQSQMFDLQGSTTSVRYTGHGGPVFSVNFSPDRRLLISSAGDRTVRLWSMETQRNAVIYRTPAVAQFCSRGYYFATASADKTAAMWSTDRMHPLRIFADPYGDVGCIDYHPNCNYIAGGSDDRYVRVWDVCSGTRVRIFSGHKASIIAVKFSPCGRYIVSLDAIGNLMIWDLAYQRLVAAEITEQAGTKGSITFSRDGGVFAVSHGNSSIQLYSLDTLIGTVLAAGQNDSYIEPKVNLDGFNIGSYATKETAVIGLHFTRRNLLLGFGCFGQ | soluble |
| MGSDKIHHHHHHMYCGVPEEDPDKLVALILSGGQSSRMGTDKGSMELNGERLVERAGNLCASAGLPFYYSINASQNQQYLNFLPADALIVDTLDDIKGPLAGLLSFYVKYPNTDVLLLPCDMIHLGKSILSDLVQAYETMSIGHDIIVYQYANEIIEPMPGIYTSEALRKIYWLFLSGDLTRFSLKYCIEISNSFFIPIKKEAEVLFKNINSPEDITPSK | not soluble |
| SNAMKWKKSLAGLSSYKPGKREEEVMAELGLTKITKLSSNENPLGTSKKVAAIQANSSVETEIYPDGWASSLRKEVADFYQLEEEELIFTAGVDELIELLTRVLLDTTTNTVMATPTFVQYRQNALIEGAEVREIPLLQDGEHDLEGMLNAIDEKTTIVWICNPNNPTGNYIELADIQAFLDRVPSDVLVVLDEAYIEYVTPQPEKHEKLVRTYKNLIITRTFSKIYGLASARVGYGIADKEIIRQLNIVRPPFNTTSIGQKLAIEAIKDQAFIGECRTSNANGIKQYEAFAKRFEKVKLYPANGNFVLIDLGIEAGTIFSYLEKNGYITRSGAALGFPTAVRITIGKEEDNSAVIALLEKLL | soluble |
| AHHHHHHGSVRDMEFGNLKPGVENSVCLSAEDLLNTVLSVINSTKARGAYVKIFGKDMEDNYLLEMLVDGSRILAIECSYVQAKKKVVGEEAIKKLAELVELPLIVSVYPLDDNQFRLILANNLEVYSQTPAVPLSSVFKKGATRTIESAIEEAKEEKEEEIQKIMKKTEEIVTEEKKKKEEKKRSSNRNTKRKQN | soluble |
| MKNNKDEKIRISIINGFLGSGKTTLLTHYISELLKNDEKIKIIMNEFGTFDIDSNSISNEIEVHSLINGCVCCDLKQELVYELKAIALKGDVNHVIIETTGIAHPLELLVACQDPQIVNFFEKPIIYGVLDATRFLERHQYTENTVSLMEDQLKLSDMIIINKIDLITDDRLERIDKQLGMICASIPTYKTTYGKVSLEELDLTVKDREISSHHHHHHGIKSMTYTFTGPIDRQLFYQFIMKLPESVLRLKGYVSFRDQPNAIYEFQYAYGLPDYGIIGMQLPLTIVIIGETLDTNHIRNQLDMLQFT | not soluble |
| MGHHHHHHSHMKKEHVLHCQFSAWYPFFRGVTIKSVILPLPQNVKDYLLDDGTLVVSGRDDPPTHSQPDSDDEAEEIQWSDDENTATLTAPEFPEFATKVQEPINSLGGSVFPKLNWSAPRDAYWIAMNSSLKCKTLSDIFLLFKSSDFITRDFTQPFIHCTDDSPDPCIEYELVLRKWCELIPGAEFRCFVKENKLIGISQRDYTQYYDHISKQKEEIRRCIQDFFKKHIQYKFLDEDFVFDIYRDSRGKVWLIDFNPFGEVTDSLLFTWEELISENNLNGDFSEVDAQEQDSPAFRCTNSEVTVQPSPYLSYRLPKDFVDLSTGRDAHKLIDFLKLKRNQQEDD | not soluble |
| MGHHHHHHSHHRFSINGHFYNHKTSVFTPAYGSVTNVRINSTMTTPQVLKLLLNKFKIENSAEEFALYVVHTSGEKQKLKATDYPLIARILQGPCEQISKVFLMEKDQVEEVTYDVAQYIKFEMPVLKSFIQKLQEEEDREVKKLMRKYTVLRLMIRQRLEEIAETPATI | not soluble |
| MASQLTDAFARKFYYLRLSITDVCNFRCTYCLPDGYKPSGVTNKGFLTVDEIRRVTRAFARLGTEKVRLTGGEPSLRRDFTDIIAAVRENDAIRQIAVTTNGYRLERDVASWRDAGLTGINVSVDSLDARQFHAITGQDKFNQVMAGIDAAFEAGFEKVKVNTVLMRDVNHHQLDTFLNWIQHRPIQLRFIELMETGEGSELFRKHHISGQVLRDELLRRGWIHQLRQRSDGPAQVFCHPDYAGEIGLIMPYEKDFCATCNRLRVSSIGKLHLCLFGEGGVNLRDLLEDDTQQQALEARISAALREKKQTHFLHQNNTGITQNLSYIGGLEHHHHHH | not soluble |
| MCGRIAQKSAPEDYVEILWPNARLIFDDVAGPRYNIPPGTRPLTMHRLVDQAEALARLPWGYKPHGSRFFMVNAKLETIERHGWPWKLMIGVGRILVPADGWYEWRALDSGPKPAKQSYYIHGDAPLLFAGLSAWRRGAELDEAHGFAIVTNDALGGMVDVHDRRPVALPPELAREWVDPATPVARAKEILRAGLPETAFSWYPVRQEVGSSKYQLPDAVDPLLEHHHHHH | not soluble |
| YTRRSIEKMVKTQVDSKVLDEKNKYYEQQLVTMKQTLESQRTVRHDLKNKLSPLIYLAESGKTDELVEQVQELGSLSVLGKIYADSGNITIDYIINLKLQALANKGVTIFCEINVPNDIDVVPFDLSTVLGNLIDNAAEALEYVQNEKWIGIKISYQVGFLMIQVANSFDGIVHLDNKKIISRKEDTENHGIGLTSIKKIAGKYDGEVVVQHDDKQFDVIVKLLA | not soluble |
